Results: US20150274808A1 (Biogen, published 2015)

Target: T1, human antigen that binds to mAb1 (human LINGO-1) (human, UniProt Q96FE5 42-538, limits assumed)
T1 sequence (looked up): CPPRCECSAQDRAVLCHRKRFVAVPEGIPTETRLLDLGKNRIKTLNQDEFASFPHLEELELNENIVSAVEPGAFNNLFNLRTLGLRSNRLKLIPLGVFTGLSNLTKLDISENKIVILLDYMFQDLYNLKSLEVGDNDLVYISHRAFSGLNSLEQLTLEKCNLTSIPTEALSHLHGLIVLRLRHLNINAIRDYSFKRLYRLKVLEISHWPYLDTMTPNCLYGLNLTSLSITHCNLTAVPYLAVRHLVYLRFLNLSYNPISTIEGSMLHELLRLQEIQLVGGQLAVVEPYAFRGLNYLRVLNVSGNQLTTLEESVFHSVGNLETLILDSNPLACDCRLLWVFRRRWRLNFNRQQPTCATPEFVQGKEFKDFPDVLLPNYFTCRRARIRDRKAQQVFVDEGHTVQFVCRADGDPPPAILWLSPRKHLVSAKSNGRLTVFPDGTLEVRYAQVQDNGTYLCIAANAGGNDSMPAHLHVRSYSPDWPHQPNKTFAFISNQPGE
Assay: direct binding ELISA on plate-coated human antigen; preparation with 39% trisulfide at LC5-HC5
Method: Costar 96-well easy wash plates were coated overnight with 5 μg/mL human antigen that binds to mAb1 (50 μL/well), in 50 mM sodium carbonate (pH 9.5) at 4° C. Plates were washed 3 times with 350 μL of PBS using a plate washer and blocked with 1% BSA, 0.1% ovalbumin, and 0.1% non-fat dry milk in Hank's balanced salt buffer containing 25 mM HEPES (pH 7.0) for 1 hour at room temperature. Plates were then washed again, and incubated for 1 h with a 3-fold dilution series set up for each test compound (50 μL/well, 8 dilutions) starting at 10 μg/mL and all in 0.1% BSA, 0.1% ovalbumin, and 0.1% non-fat dry milk in Hank's balanced salt buffer containing 25 mM HEPES (pH 7.0), and again washed. Bound mAb1 was detected using AP-anti-human Fab. […] Plates were read at 405 nm on a Molecular Devices plate reader. EC₅₀ values for binding were calculated from the titration curve using prism software. The function of mAb2 was assessed as for mAb1 except that 96 well microplates were coated overnight at 4° C. with 1 μg/mL (in 15 mM Na₂CO₃, 35 mM NaHCO₃, pH 9.6) of a human antigen that binds to mAb2. […] Binding was determined using a horseradish peroxidase-conjugated goat anti-human polyclonal antibody (Jackson ImmunoResearch, West Grove, Pa.) followed by measurement of horse radish peroxidase activity using the substrate tetramethylbenzidine.

B1: anti-LINGO-1 antibody Li81 (antibody, V domains shown)
VH: EVQLLESGGGLVQPGGSLRLSCAASGFTFSAYEMKWVRQAPGKGLEWVSVIGPSGGFTFYADSVKGRFTISRDNSKNTLYLQMNSLRAEDTAVYYCATEGDNDAFDIWGQGTTVTVSS
VL: DIQMTQSPATLSLSPGERATLSCRASQSVSSYLAWYQQKPGQAPRLLIYDASNRATGIPARFSGSGSGTDFTLTISSLEPEDFAVYYCQQRSNWPMYTFGQGTKLEIK
notes: Tested as an aglycosyl human IgG1 made in CHO cells; They differ only in the share of trisulfide at the light-heavy (LC5-HC5) interchain bond; also called mAb1; Mab1
EC50: 0.02 nM
